From PMC4026322

Test: immunofluorescence in HEK293 cells (data not shown)
Settings: glycan lost; control: wild type

B1: ABCC6: N15D (protein)
parent chain: MAAPAEPCAGQGVWNQTEPEPAATSLLSLCFLRTAGVWVPPMYLWVLGPIYLLFIHHHGRGYLRMSPLFKAKMVLGFALIVLCTSSVAVALWKIQQGTPEAPEFLIHPTVWLTTMSFAVFLIHTERKKGVQSSGVLFGYWLLCFVLPATNAAQQASGAGFQSDPVRHLSTYLCLSLVVAQFVLSCLADQPPFFPEDPQQSNPCPETGAAFPSKATFWWVSGLVWRGYRRPLRPKDLWSLGRENSSEELVSRLEKEWMRNRSAARRHNKAIAFKRKGGSGMKAPETEPFLRQEGSQWRPLLKAIWQVFHSTFLLGTLSLIISDVFRFTVPKLLSLFLEFIGDPKPPAWKGYLLAVLMFLSACLQTLFEQQNMYRLKVLQMRLRSAITGLVYRKVLALSSGSRKASAVGDVVNLVSVDVQRLTESVLYLNGLWLPLVWIVVCFVYLWQLLGPSALTAIAVFLSLLPLNFFISKKRNHHQEEQMRQKDSRARLTSSILRNSKTIKFHGWEGAFLDRVLGIRGQELGALRTSGLLFSVSLVSFQVSTFLVALVVFAVHTLVAENAMNAEKAFVTLTVLNILNKAQAFLPFSIHSLVQARVSFDRLVTFLCLEEVDPGVVDSSSSGSAAGKDCITIHSATFAWSQESPPCLHRINLTVPQGCLLAVVGPVGAGKSSLLSALLGELSKVEGFVSIEGAVAYVPQEAWVQNTSVVENVCFGQELDPPWLERVLEACALQPDVDSFPEGIHTSIGEQGMNLSGGQKQRLSLARAVYRKAAVYLLDDPLAALDAHVGQHVFNQVIGPGGLLQGTTRILVTHALHILPQADWIIVLANGAIAEMGSYQELLQRKGALMCLLDQARQPGDRGEGETEPGTSTKDPRGTSAGRRPELRRERSIKSVPEKDRTTSEAQTEVPLDDPDRAGWPAGKDSIQYGRVKATVHLAYLRAVGTPLCLYALFLFLCQQVASFCRGYWLSLWADDPAVGGQQTQAALRGGIFGLLGCLQAIGLFASMAAVLLGGARASRLLFQRLLWDVVRSPISFFERTPIGHLLNRFSKETDTVDVDIPDKLRSLLMYAFGLLEVSLVVAVATPLATVAILPLFLLYAGFQSLYVVSSCQLRRLESASYSSVCSHMAETFQGSTVVRAFRTQAPFVAQNNARVDESQRISFPRLVADRWLAANVELLGNGLVFAAATCAVLSKAHLSAGLVGFSVSAALQVTQTLQWVVRNWTDLENSIVSVERMQDYAWTPKEAPWRLPTCAAQPPWPQGGQIEFRDFGLRYRPELPLAVQGVSFKIHAGEKVGIVGRTGAGKSSLASGLLRLQEAAEGGIWIDGVPIAHVGLHTLRSRISIIPQDPILFPGSLRMNLDLLQEHSDEAIWAALETVQLKALVASLPGQLQYKCADRGEDLSVGQKQLLCLARALLRKTQILILDEATAAVDPGTELQMQAMLGSWFAQCTVLLIAHRLRSVMDCARVLVMDKGQVAESGSPAQLLAQKGLFYRLAQESGLV
Q: With B1 as the protein, how does the localisation_or_trafficking read?
A: The localisation_or_trafficking was “no change”.
